Reference: US20140314667A1, “METHODS OF TREATING EPIDERMAL GROWTH FACTOR DELETION MUTANT VIII RELATED DISORDERS” (AMGEN INC., priority 2011, published 2014)

T1: OVA (Gallus gallus, UniProt P01012)
T1 sequence (P01012 1-386): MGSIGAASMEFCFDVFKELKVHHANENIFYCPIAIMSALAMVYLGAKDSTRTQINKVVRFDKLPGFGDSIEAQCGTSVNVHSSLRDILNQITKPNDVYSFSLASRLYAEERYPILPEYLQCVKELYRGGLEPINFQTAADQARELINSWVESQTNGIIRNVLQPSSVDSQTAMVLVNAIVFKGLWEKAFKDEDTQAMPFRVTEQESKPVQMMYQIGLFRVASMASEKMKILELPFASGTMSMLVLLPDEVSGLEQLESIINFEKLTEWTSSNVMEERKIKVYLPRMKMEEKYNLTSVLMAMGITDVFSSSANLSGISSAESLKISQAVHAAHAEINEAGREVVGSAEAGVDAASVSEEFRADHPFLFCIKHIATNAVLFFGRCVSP

B1: 333: XenoMax derived anti-EGFRvIII antibody, SEQ ID NO: 17/32 (antibody, listed as Homo sapiens, V domains shown)
VH: QVQLVESGGGVVQPGRSLRLSCVASGFTLSSYGMHWVRQALGKGLEWVAVTSYDGSKKDYADSVKGRFTISRDNSKNTLYLQMNSLRAEDTAVYYCVSEGYCDSTSCYKYYYYGMDVWGQGTTVTVSS
VL: DIVMTQSPLSLPVTPGEPASISCRSSQSLLYRNGNNYLDWYLQRPGQSPQLLIYLGSNRASGVPDRFSGSGSGTDFTLKISRVEAEDVGVYYCMQALQTPRTFGQGTKVEIK
B2: 129A7: XenoMax derived anti-EGFRvIII antibody, heavy chain of 124 (SEQ ID NO: 13), light chain of 123 (SEQ ID NO: 29) (antibody, listed as Homo sapiens, V domains shown)
VH: QVQLVESGGGVVQPGRSLRLSCAASGFTLSSYGMHWVRQAPGKGLEWVAVMSYDGSKEDYADSVKGRFTISRDNSENTLYLQMNSLRAEDTAVYYCVSEGYCSSRSCYKYYYYGMDVWGQGTTVTVSS
VL: DIVMTQSPLSLPVTPGEPASISCRSSQSLLYRNGNNYLDWYLQKPGQSPQLLIYLGSNRASGVPDRFSGSGSGTDFTLNISRVEAEDVGHYYCMQALQTPRTFGQGTKVEIK
B3: 095: XenoMax derived anti-EGFRvIII antibody, SEQ ID NO: 7/23 (antibody, listed as Homo sapiens, V domains shown)
VH: QVQLQESGPFLVKPSQTLSLTCTVSGGSISSGGYYWSWIRQHPGKGLEWIGFIYYRGNTYYNPSLKSRVTISVDTSKNQFSLKLSSVTAADTAVYYCARDGYCSRTGCYGGWFDPWGQGTLVTVSP
VL: DIVMTQTPLSSPVTLGQPASISCRSSQSLIHTDGNIYLSWLQQRPGQPPRLLIYKISNRFSGVPDRFSGSGAGTDFTLKISRVEAEDVGVYYCMQGTQFPITFGQGTRLEIK
B4: 139: XenoMax derived anti-EGFRvIII antibody, SEQ ID NO: 10/25 (antibody, listed as Homo sapiens, V domains shown)
VH: EVQVLESGGGLVQPGGSLRLSCAASGFTFSSYAMSWVRQAPGKGLEWVSAISGSGGSTNYADSVKGRFTISRDNSKNTLYLQMNSLRAEDTAVYYCAGSSGWSEYWGQGTLVTVSS
VL: DIQMTQSPSSLSASVGDRVTITCRASQGIRNNLAWYQQKPGKAPKRLIYAASNLQSGVPSRFTGSGSGTEFTLIVSSLQPEDFATYYCLQHHSYPLTSGGGTKVEIK
B5: 250: XenoMax derived anti-EGFRvIII antibody, SEQ ID NO: 9/26 (antibody, listed as Homo sapiens, V domains shown)
VH: EGQLLESGGGWVQPGESLRLSCAASGFTFSSYAMSWVRQAPGKGLEWVSAISGSGGSTNYADSVKGRFTISRDNSKNTLYLQVNSLRVEDTAVYYCAGSSGWSEYWGQGTLVTVSS
VL: DIQMTQSPSSLSASVGDSVTITCRTSQGIRKNLGWYQQKPGKAPKRLIYAASSLQSGVPSRFSGSGSGTEFTLTISRLQPEDFATYYCLQHHSYPLTFGGGTRVEIR

Assays:
EGFRvIII-peptide-OVA = biological target: T2, EGFRvIII-peptide-OVA (Homo sapiens, UniProt P00533, DELINS30-297G); assay: B-cell culture supernatant ELISA on EGFRvIII-peptide-OVA; assay type: binding; conditions: for 1′ VIII-pep-OVA OD / 2′ VIII-pep-OVA OD: Table 3.8; for binding with the pep3: XenoMax approach, in words
T2 construct: 207 μg of EGFRvIII PEP3 was reduced; host or cells: synthetic peptide, chemical conjugation
Description: B-cells from the above-discussed animals were harvested and cultured. Those secreting EGFRvIII-peptide specific antibodies were isolated as described in Babcook et al., Proc. Natl. Acad. Sci. USA, 93:7843-7848 (1996). ELISA was used to identify primary EGFRvIII-peptide-OVA-specific wells. About 5 million B-cells were cultured from XenoMouse animals in 24596 well plates at 500 or 150 or 50 cells/well, and were screened on EGFRvIII-peptide-OVA to identify the antigen-specific wells.
(§1) 244 of EGFRvIII-peptide-OVA-Elisa positive wells of OD >0.5 were screened again on EGFRvIII-peptide-OVA and on OVA to confirm that they were EGFRvIII-peptide specific.

OVA = biological target: T1, OVA; assay: B-cell culture supernatant ELISA on OVA (specificity control); assay type: binding; conditions: Table 3.8
Source text: as §1

[1] = biological target: T3, native form of EGFRvIII stably expressed on NR6 cells (NR6 M cells) (Homo sapiens, UniProt P00533, DELINS30-297G); assay: Native cell binding assay by FMAT, NR6 M cells; conditions: total fluorescent intensity
T3 construct: NR6 M cells stably expressing full length EGFRvIII; expressed in transfected cells; host or cells: NR6 cells (NR6 M)
Description: EGFRvIII peptide-OVA-Elisa positive well supernatants were analyzed for their ability to bind to the native form of EGFRvIII stably expressed on NR6 cells (NR6 M cells) (See, Batra et al. Epidermal growth factor ligand-independent, unregulated, cell-transforming potential of a naturally occurring human mutant EGFRvIII gene. Cell Growth Differ. 6(10):1251-9 (1995)). NR 6 M cells were seeded at 8000 cells per well and incubated over night in 96 well FMAT plates. Media was then removed leaving 15 μl in the well. 15 μl B-cell culture supernatants were added and 15 μl anti-human IgG Fc Cy5 at 1 μg/ml final concentration added to wells. It is then left incubated at 4° C. for 2 hours. The cells were washed with 150 μl PBS, and fixed before reading on FMAT. The results were expressed as total fluorescent intensity (Table 3.8).

[2] = biological target: T4, NR6 Wt cells (NR6 cells expressing EGF receptor) (Homo sapiens, UniProt P00533); assay: Native cell binding assay by FMAT, NR6 Wt cells; conditions: for FMAT native binding to NR6 Wt cells: total fluorescent intensity; for cross-reactivity with wild type EGFR: XenoMax approach, in words
T4 construct: expressed in transfected cells; host or cells: NR6 cells (NR6 Wt)
Source text: The same type of native binding assay was done on NR6 Wt cells (NR6 cells expressing EGF receptor) (See Batra et al. Epidermal growth factor ligand-independent, unregulated, cell-transforming potential of a naturally occurring human mutant EGFRvIII gene. Cell Growth Differ. 6(10):1251-9 (1995)) to eliminate the binding is due to binding to Wt receptor (Table 3.8). ABX-EGF was used as a positive control and PK 16.3.1 at the same concentration was used as a negative control antibody. 3 out the 134 NR6 M binders were binding strongly to NR6 Wt cells. 190 of the 244 wells bound EGFRvIII peptide in Elisa were also bound to the native form on cells.
In this example, binding of anti-EGFRvIII antibodies to NR6 M cells was measured. Specifically, unquantitated supernatants of XenoMax derived IgG1 recombinant antibodies were assayed for their ability to bind to NR6 M and NR6 WT cells. Cells were seeded at 10000/well and incubated overnight at 37 C in FMAT 96 well plates. Media was removed and 40 μl mini lipo supernatant (titrated down) was added, the cells were incubated on ice for 1 hr. […] The PK 16.3.1 antibody was used as a negative control. The cells were washed with Cold PBS, secondary antibody was added (SS Alexa antihuman IgG Fc) at 1 μg/ml, 40 μl/well and incubated on ice for 1 hr. The cells were then washed with Cold PBS and fixed and read by FMAT. All antibodies were tested for specificity for binding by counter screening against NR6 WT cells.

[3] = biological target: T5, EGFRvIII receptor on NR6 M cells (Homo sapiens, UniProt P00533, DELINS30-297G); assay: Internalization assay (FMAT, glutathione) of B cell culture supernatants; assay type: cell-based; conditions: for % internalized, (glut+/glut−) × 100 / With glutathione FL1xcount: 37° C. for 30 mins; for With glutathione FL1xcount: 50 mM glutathione; for No glutathione FL1xcount: kept on ice
T5 construct: NR6 M cells stably expressing full length EGFRvIII; expressed in transfected cells; host or cells: NR6 cells (NR6 M)
Description: The top 60 native binding B cell culture supernatants were further assayed for their ability to internalize the receptor. NR6 M cells were seeded at 8000 cells/well into 96 well FMAT plates and incubated overnight. Media was removed and 10-15 μl B-Cell culture supernatant in a total volume of 30 μl media, in duplicate was added. Next, 15 μl of secondary antibody (SS Alexa 647 anti-human IgG Fab at 1.5 μg/ml final concentration) was added and the mixture was incubated on ice for 1 hr. An irrelevant B-Cell Culture supernatant was used to see the effect of the culture media. Human anti-EGFRvIII mAb 13.2.1 was used as a positive control starting at 1 μg/ml (final concentration) and negative control was PK 16.3.1 (human anti-KLH IgG2 antibody) at the same concentration. After incubation, the cells were washed with cold PBS, 50 μl media was added to all of the wells, one of the duplicates were incubated at 37° C. for 30 mins while the other duplicate remained on ice. After the incubations media was removed, 100 ul of cold 50 mM glutathione was added to the set incubated at 37° C. and 100 μl of cold media added to the other set, both sets were then left on ice for 1 hr. The cells were then washed with 100 μl cold PBS and then fixed with 1% paraformaldehyde and read in FMAT. The results were expressed as % internalized, calculated as total fluorescence in the presence of glutathione/total fluorescence in the absence of glutathione×100.

[4] = biological target: T6, EGFRvIII receptor in NR6 M cells (Homo sapiens, UniProt P00533, DELINS30-297G); assay: Internalization of EGFRvIII receptor by recombinant mAbs (FACS); assay type: cell-based; conditions: 0.25 μg/ml antibody, 1 hr
T6 construct: NR6 M cells stably expressing full length EGFRvIII; expressed in transfected cells; host or cells: NR6 cells (NR6 M)
Description: XenoMax derived IgG1 recombinant antibodies were expressed, purified and quantitated as described previously. Antibodies were further assayed for their ability to internalize the EGFRvIII receptor in NR6 M cells. […] The cells were washed with cold 10% FCS in PBS and secondary antibody (SS Alexa antihuman IgG Fab) at 3 μg/ml Fab was added and incubated for 7 mins on ice. The cells were washed with cold 10% FCS in PBS once and then resuspended in cold media. Next, two sets of the triplicate were incubated at 37° C. and the remaining set was incubated at 4° C. for 1 hr. After that the cells incubated at 4° C. and one set of the cells incubated at 37° C. were treated with glutathione (as previously mentioned) for 1 hr on ice. Then the cells were washed and resuspended in 100 μl of cold 1% FCS in PBS and analyzed by FACS. The % internalization was calculated from the geometric mean obtained from the FACS analysis [(mean at 37° C. with glutathione−mean at 4° C. with glutathione)/(mean at 37° C. without glutathione−mean at 4 C with glutathione)].

[5] = biological target: T7, EGFRvIII expressing cells (H1477) (Homo sapiens, UniProt P00533, DELINS30-297G); assay: Selectivity for EGFRvIII expressing cells compared to ABX-EGF; assay type: binding
T7 construct: host or cells: H1477 cells

| Molecule | 1′ VIII-pep-OVA OD (EGFRvIII-peptide-OVA) | 2′ VIII-pep-OVA OD (EGFRvIII-peptide-OVA) | OVA OD (OVA) | FMAT native binding to NR6 M cells [1] | FMAT native binding to NR6 Wt cells [2] | % internalized, (glut+/glut−) × 100 [3] [%] | With glutathione FL1xcount [3] | No glutathione FL1xcount [3] | binding with the pep3 (EGFRvIII-peptide-OVA) | cross-reactivity with wild type EGFR [2] | FACS Geometric mean With glutathione 4° C. [4] | FACS Geometric mean With glutathione 37° C. [4] | selectivity for EGFRvIII expressing cells (H1477) as compared to ABX-EGF [5] |
| --- | --- | --- | --- | --- | --- | --- | --- | --- | --- | --- | --- | --- | --- |
| B1 | 0.8555 | 1.2070 | 0.1649 | 109379 | 0 | 37.1 | 13293 | 35820 | – | – | – | – | – |
| B2 | 2.1501 | 2.8208 | 0.1515 | 84024 | 0 | 31.5 | 8708 | 27648 | – | – | – | – | – |
| B3 | – | – | – | – | – | – | – | – | highly specific | limited cross-reactivity with wild type EGFR | 5.13 | 17.75 | – |
| B4 | – | – | – | – | – | – | – | – | highly specific | limited cross-reactivity with wild type EGFR | 4.88 | 19.23 | superior selectivity |
| B5 | – | – | – | – | – | – | – | – | highly specific | limited cross-reactivity with wild type EGFR | 4.84 | 8.07 | – |
